{"source": "patent US20200270588A1", "about": "“GLUCOSYL TRANSFERASE POLYPEPTIDES AND METHODS OF USE” (Syngenta Participations AG, priority 2017, published 2020)", "test_in_all_cases": "UDP-Glo glucosyl transferase assay, purified enzyme", "format_in_all_cases": "biochemical, Zea mays", "key": {"[1]": {"system": "CON1C(=O)N(c2cc(C(F)(F)F)ccn2)C(O)[C@@H]1C", "details": "other: DMSO reagent blank as control, pH 7.5", "description": "(§1) Glucosyl transferase activity is assayed via measurement of acceptor substrate-dependent production of UDP from ultrapure UDP-glucose using the Promega UDP-Glo™ method and according to the manufacturer's instructions. Assays are run in 96 well microtiter plates.\n(§2) Enzyme, typically at a stock concentration of ˜2 mg/ml is diluted to an appropriate concentration in 50 mM K^+ Hepes buffer at pH7.5 containing 0.5 mg/mL bovine serum albumin (BSA) and 5 ul aliquots of this diluted enzyme added to each well of a Perkin Elmer white ½ area 96 well plate. […] Assays are run for an appropriate time (usually 10 to 60 min) so that the amount of UDP formed lies within the most nearly linear part of the UDP standard curve and are stopped with the addition and mixing of 25 ul UDP-Glo™ detection reagent (prepared as described below). Plates are then incubated at room temperature for 60 minutes and then read in a luminescence plate reader (Perkin Elmer Envision 2130 Multilabel Reader). A UDP standard curve is run alongside each set of assays and reagent blank control assays run with DMSO in place of test herbicide. Typically, 300 pmol of UDP corresponds to a Relative Luminescence Unit (RLU) reading of about 1.5E7 and the response curve between 0 and 600 pmol is fitted to a polynomial function (see for example FIG. 2).\n(§3) The UDP-Glo™ reagents are made up and used according to the manufacturer's instructions. Thus, Nucleotide Detection Buffer and ATP are combined to make nucleotide detection reagent (NDR) dispensed into aliquots and frozen to be freshly thawed before use.\n(§4) Km and kcat values in respect of UDP-glucose are derived by carrying out experiments to measure initial rates over a suitable range of concentrations of UDP glucose out at a fixed near saturating concentration of acceptor substrate. Best fit values of kcat, Km and kcat/Km are obtained by direct fitting of the data to the Michaelis-Menten equation using Graphpad Prism™ software.\n(§5) Variants of C-terminally his tagged SEQ ID No:1 (w/t bx9 from Zea mays), exemplified as SEQ ID 16-30, were cloned, purified and assayed as described in Example 1. FIG. 4 depicts the data from some experiments to determine the kinetic parameters of some of these variants in respect of herbicide VI and table 12 summarizes the estimates of kinetic parameters obtained from further such experiments in respect of a range of herbicides."}, "[2]": {"system": "Cc1cnc(N2C(=O)N(C)CC2O)cc1C(F)(F)F", "details": "other: control = inactive H24A mutant of bx9 (asterisk), pH 7.5"}, "[3]": {"system": "CON1C(=O)N(c2cc(C(F)(F)F)c(Cl)cn2)C(O)C1C", "details": "other: control = inactive H24A mutant of bx9 (asterisk), pH 7.5"}, "[4]": {"system": "CN1CC(O)N(c2cc(C(F)(F)F)ccn2)C1=O", "details": "other: DMSO reagent blank as control, pH 7.5"}, "[5]": {"system": "CN1CC(O)N(c2cc(C(F)(F)F)c(Cl)cn2)C1=O", "details": "other: control = inactive H24A mutant of bx9 (asterisk), pH 7.5"}, "[6]": {"system": "CON1C(=O)N(c2cc(C(F)(F)F)ccn2)C(O)[C@@H]1C", "details": "other: DMSO reagent blank as control, pH 7.5", "remark": "listed apart in the source"}, "[7]": {"system": "CN1CC(O)N(c2cc(C(F)(F)F)ccn2)C1=O", "details": "other: DMSO reagent blank as control, pH 7.5", "description": "as §1, §2, §3, §4, §5", "remark": "listed apart in the source"}}, "data": [{"substance": "SEQ ID 25, mutant of Zea mays bx9 glucosyl transferase (Zea mays; A334R/M279F/S117C)", "values": [{"measurement": "Km", "setting": "[1]", "result": 8.5, "unit": "µM"}, {"measurement": "kcat", "setting": "[1]", "result": 3.24, "unit": "s⁻¹"}, {"measurement": "kcat/Km", "setting": "[1]", "result": 380000, "unit": "M⁻¹ s⁻¹"}]}, {"substance": "SEQ ID NO 17, zmBX9 S117V, M279F, A334K mutant (Zea mays; A334K/M279F/S117V)", "values": [{"measurement": "Km", "setting": "[2]", "result": 800, "unit": "µM"}, {"measurement": "kcat", "setting": "[2]", "result": 0.38, "unit": "s⁻¹"}, {"measurement": "kcat/Km", "setting": "[2]", "result": 480, "unit": "M⁻¹ s⁻¹"}, {"measurement": "Km", "setting": "[3]", "result": 190, "unit": "µM"}, {"measurement": "kcat", "setting": "[3]", "result": 2.08, "unit": "s⁻¹"}, {"measurement": "kcat/Km", "setting": "[3]", "result": 11200, "unit": "M⁻¹ s⁻¹"}, {"measurement": "Km", "setting": "[4]", "result": 109.7, "unit": "µM"}, {"measurement": "kcat", "setting": "[4]", "result": 0.852, "unit": "s⁻¹"}, {"measurement": "kcat/Km", "setting": "[4]", "result": 7800, "unit": "M⁻¹ s⁻¹"}, {"measurement": "Km", "setting": "[5]", "result": 10530, "unit": "µM"}, {"measurement": "kcat", "setting": "[5]", "result": 2.04, "unit": "s⁻¹"}, {"measurement": "kcat/Km", "setting": "[5]", "result": 190, "unit": "M⁻¹ s⁻¹"}, {"measurement": "Km", "setting": "[6]", "result": 2.2, "unit": "µM"}, {"measurement": "kcat", "setting": "[6]", "result": 2.08, "unit": "s⁻¹"}, {"measurement": "kcat/Km", "setting": "[6]", "result": 938000, "unit": "M⁻¹ s⁻¹"}]}, {"substance": "SEQ ID 24, mutant of Zea mays bx9 glucosyl transferase (Zea mays; A334K/L194C/M279F/S117V)", "values": [{"measurement": "Km", "setting": "[7]", "result": 45.5, "unit": "µM"}, {"measurement": "kcat", "setting": "[7]", "result": 2.61, "unit": "s⁻¹"}, {"measurement": "kcat/Km", "setting": "[7]", "result": 57500, "unit": "M⁻¹ s⁻¹"}]}, {"substance": "SEQ ID NO 16, zmBX9 S117V, M279F, A334R mutant (Zea mays; A334R/M279F/S117V)", "values": [{"measurement": "Km", "setting": "[1]", "result": 2.8, "unit": "µM"}, {"measurement": "kcat", "setting": "[1]", "result": 2.45, "unit": "s⁻¹"}, {"measurement": "kcat/Km", "setting": "[1]", "result": 880000, "unit": "M⁻¹ s⁻¹"}]}]}
